According to patent US20260069689A1 (Regeneron, published 2026):
Where a chain is given by its changes, count along the chain named.

B1: mAb15162 (antibody, V domains shown)
VH: EVQLVETGGGLIQPGGSLRLSCAASEFIVSRNYMSWVRQAPGKGLEWVSLIYSGGSTYYADSVKGRFTISRDNSKNILYLQMNSLRAEDTAVYYCARDRGGISDYWGQGTLVTVSS
VL: DIQMTQSPSSLSASVGDRVTITCQASQDINKYLNWFQQKPGKAPKLLIYDASNLETGVPSRFSGSGSGTDFTFTISSLQPEDIATYYCQQYDNLPRTFGQGTKLEIKR
B2: mAb15160 (antibody, V domains shown)
VH: EVQLVESGGGLVQPGGSLRLSCSASGFTFSRYAMYWVRQAPGKGLEYVSAISSDGGSTYDADSVKGRFTISRANSKNTLYLQMSSLRAEDTAVYYCVKGLRELLYYYYGMDVWGQGTTVTVSS
VL: DIQMTQSPSSLSASVGDRVTITCRAGQSISSFLNWYQQKPGKAPKLLIYAASSLQSGVPSRFSGSGSGTDFTLTISSLQPEDFATYYCQQSYITPFTFGPGTKVDIKR
B3: mAb15158 (antibody, V domains shown)
VH: EVQLVESGGGLVQPGGSLRLSCAASGFSFSSNWMSWVRQAPGKGLEWVGNINQDGSEKYYVDSVEGRFTISRDNAKKSLYLQMNSLRAEDTAVYYCARDLGVLWFGDFVDWGQGALVTVSS
VL: DIQMTQSPSSLSASVGDRVTITCRASQAISNSLAWYQQKPGKAPKLLLYAASTLESGVPSRFSGSGSGTDYTLTISSLQPEDFATYYCLQYYGSPRTFGQGTKVEIKR
B4: mAb15161 (antibody, V domains shown)
VH: EVQLVESGGGLVQPGGSLRLSCAASGFTFSSYEMNWVRQAPGKGLEWVSYISSSGSILYYADSVKGRFTASRDNAKNSLYLQMNSLRAEDTGVYYCARREYQLLRPFEFWGQGTLVTVSS
VL: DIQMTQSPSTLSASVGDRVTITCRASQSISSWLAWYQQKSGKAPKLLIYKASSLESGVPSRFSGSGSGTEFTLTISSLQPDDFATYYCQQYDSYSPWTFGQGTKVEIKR
B5: mAb15164 (antibody, V domains shown)
VH: EVQLVESGGGLVQPGGSLRLSCAASGFAVSSNYMTWVRQAPGKGLEWVATIYSGDSTYYADSVKGRFTISRHNSKNTLSLQMNSLRADDTAIYYCARLSGVLSGTYNGAFDIWGQGTMVTVSS
VL: QSALTQPASVSGSPGQSITISCTGTSSDFGNYNIVSWYQQHPGQAPKVMIYEGNKRPSGVSNRFSGSKSGHTASLTISGLQAEDEADYYCSSYAGSSTWVFGGGTKLTVLG
B6: mAb15166 (antibody, V domains shown)
VH: EVQLVESGGGLVQPGGSLRLSCAASGFTVTSNYMSWVRQAPGKGLEWVSAIYSGESTYYADSVKGRFTISRDSSKNTLYLQMNSLRVEDTAVYYCASIHDYSNYVGGFDPWGQGTLVTVSS
VL: B5 VL with T25P, N31S, I34L, Q44K, V48L, N54T, H71N
B7: mAb15165 (antibody, V domains shown)
VH: EVQLVESGGGLVQPGGSLRLSCAASGFTVSSNYMSWVRQAPGKGLEWVSAIYSGDSTYYADSVKGRFTISKDNSKNTLYLQMNSLRGEDTAVYYCARLGGALQAYDGAFDYWGQGTLATVSS
VL: B5 VL with N31S, I34L, Q44K, V48L, N62I, H71N
B8: mAb15156 (antibody, V domains shown)
VH: QLQLQESGPGLVKSSETLSLTCTVSASITGSTYYWGWIRQPPGKGLEWIGSIYYSGTTYYKASLKSRVTISVDTSKNQFSLKLTSVTVADTAVYYCVSHLLGNYHKYGMDVWGQGTTVTVSS
VL: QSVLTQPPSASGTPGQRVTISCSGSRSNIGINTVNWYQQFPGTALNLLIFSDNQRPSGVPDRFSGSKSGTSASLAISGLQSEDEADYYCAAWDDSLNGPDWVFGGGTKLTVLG
B9: mAb15159 (antibody, V domains shown)
VH: EVQLVESGGGLVQPGGSLRLSCAASGITVSSNYMTWVRQAPGKGLEWVSLIYSGGSTFYADSVRGRFTISRDNSKNTLYLQMNSLRAEDTAVYYCARDLVVYGMDVWGQGTTVTVSS
VL: DIQLTQSPSSLSASVGDRVTITCRASQGISSYLAWYQQKPGKAPKLLIYAASTLQSGVPSRFSGSGSGTDFTLTISSLQPEDFATYYCQHLNSDPHTFGQGTKLEIKR
B10: mAb15170 (antibody, V domains shown)
VH: B9 VH with S25T, T35S, R64K, D72H, N83S, V101D, Y102F
VL: B9 VL with S31N, A84G, H90Q, P95S, H96P, L104V
B11: mAb15163 (antibody, V domains shown)
VH: EVQLVETGGGLIQPGESLRLSCAASGFIVSTNYMNWVRQAPGKGLEWVSVIYRGGSTYYADSVKGRFTISRDNSKNTLFLQMNSLRAEDTAVYYCARGHEDFDYDTPASGAFDIWGQGTMVTVSS
VL: QSALTQPPSASGSPGQSVTISCTGTSSDVGGHNYVSWYQQHPGKAPKVMIYEVSKRPSGVPDRFSGSKSGNTASLTVSGLQAEDEADYYCSSYAGSNKFVFGTGTKVTVLG
B12: mAb15157 (antibody, V domains shown)
VH: EVQLVESGGALVQPGGSLRLSCAASGFPFTIYAMTWVRQAPGKGLEWVSVITGSGDSTYYADSVKGRFTISRDNSKNTLYLQMNSLRAEDTAVYYCVKTGEGFFYYYYGMDVWGQGTTVTVSS
VL: QSVLTQPPSVSAAPGQKVTISCSGSSSNIGNSYISWYQQLPGTAPKLLIYVNNKRPSGIPDRFSGSKSGTSATLGITGLQTGDEADYYCGTWDSSLSAGVFGSGTKVTVLG
B13: mAb14315 (antibody, V domains shown)
VH: QVQLVQSGAEVKKPGSSVKVSCKASGDTFSTYAINWVRQAPGQGLEWMGRFIHIFGTANYAQKFQGRVTITADESTSTAYMELRSLRSEDTAVYYCARDGVDYGDYRPDYWGQGTLVTVSS
VL: EIVLTQSPGTLSLSPGERATLSCRASQSVSSNYLAWYQQKPGQAPRLLIYGASSRATGIPERFSGSGSGTDFTLTISRLEPEDFAVYYCQQYGSSLYTFGQGTKLEIKR

What was measured:
[1] = molecular target: T1, SARS-COV-2 RBD-MMH (SARS-COV-2 RBD extracellular domain with C-terminal myc-myc-hexahistidine tag) (SARS-CoV-2); experiment: SPR 37C, mAb captured, pH 7.4 vs pH 6.0
[2] = molecular target: SARS-CoV-2 RBD.mmh (Spike amino acids Arg319-Phe541 with C-terminal myc-myc-6-Histidine tag) (SARS-CoV-2, UniProt P0DTC2 319-541)
[3] = molecular target: T1, SARS-COV-2 RBD-MMH (SARS-COV-2 RBD …)

Row | Binder | t½ Ratio of pH 7.4 to pH 6.0 [1] | IC50 [2] | koff [3] | t½ at pH 6.0 [3] | t½ at pH 7.4 [3]
1 | B1 | 1.2 | 756 pM | 0.00354 s⁻¹ | 3.3 min | 3.9 min
2 | B2 | 1.3 | 204 pM | 0.00283 s⁻¹ | 4.1 min | 5.3 min
3 | B3 | 0.9 | 309 pM | 0.00029 s⁻¹ | 40.1 min | 37 min
4 | B4 | 0.9 | 584 pM | 0.00107 s⁻¹ | 10.8 min | 10.3 min
5 | B5 | 0.9 | 245 pM | 0.0021 s⁻¹ | 5.5 min | 5.1 min
6 | B6 | 1 | 475 pM | 0.0301 s⁻¹ | 0.4 min | 0.4 min
7 | B7 | 0.8 | 189 pM | 0.00128 s⁻¹ | 9.1 min | 7.1 min
8 | B8 | 1.4 | 269 pM | 0.0097 s⁻¹ | 1.2 min | 1.7 min
9 | B9 | 1.8 | 156 pM | 0.000412 s⁻¹ | 28.1 min | 50 min
10 | B10 | 0.7 | 102 pM | 8e-05 s⁻¹ | 144 min | 108 min
11 | B11 | 2.1 | 217 pM | 0.00104 s⁻¹ | 11.1 min | 23.4 min
12 | B12 | 1.9 | 357 pM | 0.00766 s⁻¹ | 1.5 min | 2.9 min
13 | B13 | 1 | 17200 pM | 0.000946 s⁻¹ | 12.2 min | 11.8 min
